According to the DeepSol protein solubility set:

Test: soluble on expression in E. coli; label from the status in PepcDB or PDB records

Soluble on expression in E. coli, soluble:
MGSNPPASPLQDNLVIALHSYEPSHDGDLGFEKGEQLRILEQSGEWWKAQSLTTGQEGFIPFNFVAKANSLEPEPWFFKNLSRKDAERQLLAPGNTHGSFLIRESESTAGSFSLSVRDFDQNQGEVVKHYKIRNLDNGGFYISPRITFPGLHELVRHYTNASDGLCTRLSRPCQT, SKNPEEAAEGKQRIHLRPGSLRGAAPAKLHLLPCDVLVSRPAPVDRFFTPAVRHDADGLQASFRGRGLRGEEVAVPPGFAGFVMVTEEKGEGLIGKLNFSGDAEDKADEAQEPLERDFDRLIGATGSFSHFTLWGLETVPGPDAKVHRALGWPSLAAAIHAQVPED, MSQYERFDSVLLSMAQQLSGGVPEMLDVLFEFLSRKTDFYSGAGVDQARTLLLEKFDKHGGKAMKEAEEAKKRKEEQERKLAERRAAQKAKEEEEFRNAKVVEVTDEEAAAFEKEQAKNSVENLEKFVDNEGETSKDAEVEDEDSKLMKPNSGNGADLAKYQWTQTLQELEVKIPIAAGFAIKSRDVVVKIEKTSVSVGLKNQAPIVDGKLPHAIKVENCNWVIENGKAIVLTLEKINDMEWWNRFLDSDPPINTKEVKPENSKLSDLDGETRAMVEKMMYDQRQKEMGLPTSDEKKKHDMLQQFMKQHPEMDFSNAKIG, MLEEYRKHVAERAAEGIAPKPLDANQMAALVELLKNPPAGEEEFLLDLLTNRVPPGVDEAAYVKAGFLAAIAKGEAKSPLLTPEKAIELLGTMQGGYNIHPLIDALDDAKLAPIAAKALSHTLLMFDNFYDVEEKAKAGNEYAKQVMQSWADAEWFLNRPALAEKLTVTVFKVTGETNTDDLSPAPDAWSRPDIPLHALAMLKNAREGIEPDQPGVVGPIKQIEALQQKGFPLAYVGDVVGTGSSRKSATNSVLWFMGDDIPHVPNKRGGGLCLGGKIAPIFFNTMEDAGALPIEVDVSNLNMGDVIDVYPYKGEVRNHETGELLATFELKTDVLIDEVRAGGRIPLIIGRGLTTKAREALGLPHSDVFRQAKDVAESDRGFSLAQKMVGRACGVKGIRPGAYCEPKMTSVGSQDTTGPMTRDELKDLACLGFSADLVMQSFCHTAAYPKPVDVNTHHTLPDFIMNRGGVSLRPGDGVIHSWLNRMLLPDTVGTGGDSHTRFPIGISFPAGSGLVAFAAATGVMPLDMPESVLVRFKGKMQPGITLRDLVHAIPLYAIKQGLLTVEKKGKKNIFSGRILEIEGLPDLKVEQAFELTDASAERSAAGCTIKLNKEPIIEYLNSNIVLLKWMIAEGYGDRRTLERRIQGMEKWLANPELLEADADAEYAAVIDIDLADIKEPILCAPNDPDDARPLSAVQGEKIDEVFIGSCMTNIGHFRAAGKLLDAHKGQLPTRLWVAPPTRMDAAQLTEEGYYSVFGKSGARIEIPGCSLCMGNQARVADGATVVSTSTRNFPNRLGTGANVFLASAELAAVAALIGKLPTPEEYQTYVAQVDKTAVDTYRYLNFNQLSQYTEKADGVIFQTAV, MSLDNDTVKVGDLVQINLPGEASLNQGFQVDRRGRINLPEIGPVFVAGYNEQQLQDVIIETLKTVYRDVNNARVFIKQQQLLVSVQGYVVKPGEYTLPAGSNIQMFVYEAGGLRAGAQLDKMIVKRGDQNIEFDYKRFLDTGDNEGHHHHHH, MSLLFIFVVQSFAALSVEELTWDNGDTLLKFLQRNSIPMSLYYGLDREDQELASDIAYKIKYQVLKDENNNIEQVLIPISDDLQIHIYKDKDGQYTLAFTPVSYQKEDRILHLTIKSSAYQDVYEESGSSTLARAMVRAFRGSINFRNIQKGDEVTLYYEQKRRMGKLWGDINIKMAMVEINKSAREVFSYNDIFYDRDGKELESFLLTKPVNYTRISSPFTTARYHPILKRYRAHLGIDYAAPTGTPVKSAGKGVVTFIGTKGGYGNVIQIKHDSGYMTLYAHLSRFAKIKNGQKVNQGQVIAYVGSTGMSTGPHLHFGVYLNNKAINPASVVKIAKSELSGKAKENFKHIIAGYEQVVKEALASNQPNPPKEEDFENYIEGHHHHHH, VEVLLGGDDGSLAFLPGDFSVASGEEIVFCNNAGFPHNVVFDEDEIPSGVDAAKISMSEEDLLNAPGECYKVTLTEKGTYKFYCSPHQGAGMVGKVTVN, SNAMDMVTVTAKTVEEAVTKALIELQTTSDKLTYEIVEKGSAGFLGIGSKPAIIRAKRKETLQDKAIEFLEQVFDAMNMAVDISVEYNETEKEMNVNLKGDDMGILIGKRGQTLDSLQYLVSLVVNKSSSDYIRVKLDTENYRERRKETLETLAKNIAYKVKRTKRSVSLEPMNPYERRIIHAALQNDKYVVTRSDGEEPFRHVIISLKRENRRDRNDRSDRNEK, MNSNMVFARVNEADVTEAILDGFYSSLKKHLRSDVIVVGAGPAGLTAAWRLAEAGARVLIVEQNNYLGGGLWLGGYFMNPVTIRAPAQRILDELEVPYEAVKPGLYRTKGPLLAAKLAARALEAGAEVLNLTMLDDVIVENSRVAGVVVNWSPVQGLPRQITCVDPVGLRAEYVVDATGHDAVVTRKLAERGMVEASKLGPMWVERSEDLVVEKTGEVYPGLVVAGIAVAEVYGLPRMGPTFGAMLLSGEKAAALIGEKLGLKVKVAAAPASQA

Soluble on expression in E. coli, not soluble:
GSEVYKKAPPYPEQVVSASGKVLMTKDDILAGQSAWQTTGGMEVGSILGHGAYQAPDWTADWLHRELVAWLDLTAQQTYGKKFDEVSPEEQAVLKTRLADEYRNQSRVKEDGSVVISDTRVKAIESILPYYHGVYSDDPKFQTTREHFAMKNNTLPSQEAREKLFNFFFWTSWSASTNRPDENFTYTNNWPHEPLINNVPTTEN, MGSDKIHHHHHHMNELNCLPQDAVLWGHDILPAATASLEAHGLRHPLTFTVEPLRDFHAQHVAPYLKRGAGAFTDLPPHAPDTGVRCALDACLRAEADSILALGGGSVLDAAKAVSHLHQQQTGRYLPIAAYPTTLSGSEYSHYFGVTETVGPQPFKRSYAVRETVPKVVVIDPKLLVNTPRELLLSSAIKGIDHAVEGMRRVGVDHPHAILAAAGVERFFAVLEKWPAGTDTAEALRSGQITTDDLLQLQLAAWQCYFFPASVIYGLSHRIGHILGGTYGLPHSVTSCITLAPVLQACAATYGNKLNIFCHGETTADAAPALAGRIAGVVKRLGLPYRLRDLDFDRARLAQVAALLRQNYAAEVADLGDGADAMLHTFLERLW, MGSDKIHHHHHHMCRLLAYLGSPVSLEHLLYKPEHSLIVQSYKPREMTSGAVNADGFGVGWYHSQKDIEPFTYKNTLPIWNDINLLSLSRYIESKCVLAYVRSATSEQAVDFANCQPFKHQQQLFIHDGRIENFHKTLHRKIRSTLTQDFYEKINGNTDSEHIFALLLSQSQINKHRPPEYALRTTLLTLLEMAKRYQVEASINVIFSDGHRLIASRFATTSLAPSLYWVRDDPTFSNSVIIASEPLFIGNWNAFPENSIITVGADCEIQIEQI, MTFKDLRDFIAQLEQRGALKRIQVPISPVLEMTEVCDRTLRAKGPALLFEKPTGFDMPVLGNLFGTPERVALGMGAEDVGALREIGKLLAQLKEPEPPKGLKDAWAKLPMYRKVLSMAPKVLKDAPCQEVVEEGEDVDLGRLPVQTCWPGDVGPLITWGLTVTRGPNKERQNLGIYRQQVIGRNKVIMRWLSHRGGALDYREWCQKHPGQPYPVAVALGADPATILGAVTPVPDTLSEYAFAGLLRGHRTELVKCRGSDLQVPASAEIVLEGVIHPGEMADEGPYGDHTGYYNEVDRFPVFTVERVTRRQKPIYHSTYTGRPPDEPAILGVALNEVFVPILQKQFPEIVDFYLPPEGCSYRMAVVTMKKQYPGHAKRVMLGVWSFLRQFMYTKFVIVTDDDIDARDWNDVIWAITTRMDPKRDTVMIDNTPIDYLDFASPVSGLGSKMGLDATHKWPGETSREWGRAIVKDEAVTRRIDALWSSLGIDAAALEHHHHHH, MGSDKIHHHHHHMRYSICYTPSARDPLSLAAASWLGRNVYSDEPVEHPGLAGLGLHEIAFHTALPRRNGFHGCLKAPFALHPEVSEAQLLRELMHFAGIVEPFALPGLEVAKLGDFCGLTLTHPSNQLDRVAALVVQNFDRFRAPLSDAEIERMAPERLSAPQFANLYRWGDPHVLDEYRFYMPLTGPLPLSHRDRLHQAATHYFAPLLQNPVVFANLALFIEREPGAPLVVHSLHPMGRVSARKIA, EERLKMSTTTSTQDSGLLKVLLPPFEKKNNVKVDVIAVGTGQALKLGEAGDVDVVFVHARKLEDKFVADGFGVNRKDVMYNDFVIVGPKNDPAGIAKAKTAAEALKLLATKGATFISRGDKSGTHTKELDLWKSAGVDPKGNWYVEAGQGMGPVITMATERRAYTLTDRGTYNAFKGAKTDLVILFQGEKGLFNPYGIMAVNPKKFPHVKYDLAMKLIDYVTGPEGLKIISDYKAHG, MTETRKKPDPIDVYVGTRIRLRRNILGLTQEKLGEKLGITFQQIQKYEKGTNRIGASRLQAIAEIMDVPVSYFFDKGVGTQQVEGFAESDNDFMDFCSSSEGIQLMRAFTNISDSKVRRKIIDLAKALSEEEDLTNKL, MGSDKIHHHHHHMLDVHKDIKKIFHEEQVLAEAAARYGFSKDQVRFLADAENYVYECMKDNQPYILKITHTIRRSSDYMMGEMEWLRHLAIGGISVAKPLPSLNGKDVEAVPDGNGGSFLLRVYEKAPGQKVDESDWNETLFYELGRYTGSMHSLTKSYKLSNPAFKRAAWAEEEQLKLRKYVPEDQIKVFQQADSLMNELRRLPKSQDNYGLVHADLHHGNFNWDHGKITAFDFDDIGYNWFVNDISILLYNVLWYPVVPYDDKAAFTEEFMTHFMKGYWEENELDPAWLMIIPDFLRLRHMLIYGLLHQMFDLNTIGEEEKEMLAGFRRDIENGTPITAFDFSALV, TRGLNFSVEFTGGTVMEVQYQQGADVNKMRERLDTLKIGDVQVQALGTNKHIMIRLPNKEGVTSAQLSNQVMDLLKKDSPDVTLRQVEFIGPQVGEE, MPEILKVKPTRMELLKLKRRVKLAERGHKLLKEKQDALIMEFFTIYDEALSMRRELIKKIGEAFEALRLAQVEVGSVRLKEIAIGVNPNKEIEVRSRNIMGVRVPLIEVPELKRKPSERGYAFISTSSAVDVAAEKFEEVLELAIRLAEVEESLKRLGKEIEKTKRRVNALEYIIIPRMKNTIKFIEQHLDEMERENFFRLKRIKALLEARESMLEHHHHHH, MRGSGPRDRGSNPRPATTPTALSYISLPTSDSTRWGGLAVARARGVVLGYRRGTNTQYPQHALVKLLLDDPRKAGLYVSGIAFYRDRYGNVYKGRVLRLHGRRGGVVVVKFNPPLPGQATGGVVEVVKAGGDGLEHHHHHH, MAELYDGPIVDAHHHFWDPQANYHPWLAEDAKIPFRYGDYSAIKRRYLPADYFGDVGAHRVVETVYVETEWDPRDPLGETRFVHHLAERHGAPHAVVAQAWLDAPDAAEVLAAQAGFARVRSVRHKPGGPQRPQQVGELRSLMSDERWRRGYAELARHGLHFDLQTPWWNLAEAACLARDFPDTLIVLNHAGLPSDRSEEGLAAWQRAMARFAECPNVALKISGIGQAGRRWSVEDNAWIVRESIALFGVERAMFASNFPVDSLCGSFDDIYGGFKRIVADLPYADQERLFHSNARRIYRTVPDTVRLQQASPDPRTSP, MHLRLRTKNGLITITVSQQCTIRELSEEIERKTGIEVAKQKILYGFPQRELRADADKPVESVLQSGDSLTVDKLSAETEQERTVESSPASTENAYVRRKVPDDNSCLFHAICYVFRSGSVAQLRHIISETVRLNPDLYTEAFLGKSNHEYSRWILLPETWGGAIELSILSKYFQTEISVFDIQTLRLDRYGEAENYEERVFLLYDGIHYDPIARAFLGASREYDVTVFKIWDNEALVGAKSVAEEANKNRQYTDLASFTLMCRNCGAKLKGETSAVEHAKQTGHTNFTEA
